Source: IntAct's records for PubMed 28712572

Target: gbrap_human GABARAP (UniProt O95166)
Sequence (O95166 whole entry): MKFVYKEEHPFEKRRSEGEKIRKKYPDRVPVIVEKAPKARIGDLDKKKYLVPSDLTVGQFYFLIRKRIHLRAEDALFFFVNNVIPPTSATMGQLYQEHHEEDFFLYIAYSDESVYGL

Substance | effect of a mutation on the interaction
Pericentriolar material 1 protein (Homo sapiens), Q15154 K1957C | with no effect
Pericentriolar material 1 protein (Homo sapiens), Q15154 K1957D | with no effect
Pericentriolar material 1 protein (Homo sapiens), Q15154 K1957G | with no effect
Pericentriolar material 1 protein (Homo sapiens), Q15154 K1957H | with no effect
Pericentriolar material 1 protein (Homo sapiens), Q15154 K1957I | with no effect
Pericentriolar material 1 protein (Homo sapiens), Q15154 K1957L | with no effect
Pericentriolar material 1 protein (Homo sapiens), Q15154 K1957P | with no effect
Pericentriolar material 1 protein (Homo sapiens), Q15154 K1957R | with no effect
Pericentriolar material 1 protein (Homo sapiens), Q15154 K1957S | with no effect
Pericentriolar material 1 protein (Homo sapiens), Q15154 K1957V | with no effect
Pericentriolar material 1 protein (Homo sapiens), Q15154 K1957W | with no effect
Pericentriolar material 1 protein (Homo sapiens), Q15154 K1965C | with no effect
Pericentriolar material 1 protein (Homo sapiens), Q15154 K1965D | with no effect
Pericentriolar material 1 protein (Homo sapiens), Q15154 K1965E | with no effect
Pericentriolar material 1 protein (Homo sapiens), Q15154 K1965G | disrupting interaction strength
Pericentriolar material 1 protein (Homo sapiens), Q15154 K1965H | with no effect

The next lines start with the values.

effect of a mutation on the interaction | Substance
with no effect | Pericentriolar material 1 protein (Homo sapiens), Q15154 K1957E
with no effect | Pericentriolar material 1 protein (Homo sapiens), Q15154 K1957F
with no effect | Pericentriolar material 1 protein (Homo sapiens), Q15154 K1957M
with no effect | Pericentriolar material 1 protein (Homo sapiens), Q15154 K1957N
with no effect | Pericentriolar material 1 protein (Homo sapiens), Q15154 K1957Q
with no effect | Pericentriolar material 1 protein (Homo sapiens), Q15154 K1957T
with no effect | Pericentriolar material 1 protein (Homo sapiens), Q15154 K1957Y
with no effect | Pericentriolar material 1 protein (Homo sapiens), Q15154 K1965A
with no effect | Pericentriolar material 1 protein (Homo sapiens), Q15154 K1965F
